# Data from patent publication US20250332238.
# Changes are numbered by the printed parent chain. In names and notes the source's numbering stands.
# T1: TRMT112 (KMT9beta; tRNA methyltransferase subunit 11-2, isoform 2, Homo sapiens)
# T1 chain: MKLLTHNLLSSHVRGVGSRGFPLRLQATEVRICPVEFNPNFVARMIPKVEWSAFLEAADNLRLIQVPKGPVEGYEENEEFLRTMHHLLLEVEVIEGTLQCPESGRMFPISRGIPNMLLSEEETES
# B1: C21orf127 (KMT9alpha; N-6 adenine-specific DNA methyltransferase 1, isoform 1, Homo sapiens) (protein)
# chain: MAGENFATPFHGHVGRGAFSDVYEPAEDTFLLLDALEAAAAELAGVEICLEVGSGSGVVSAFLASMIGPQALYMCTDINPEAAACTLETARCNKVHIQPVITDLVKGLLPRLTEKVDLLVFNPPYVVTPPQEVGSHGIEAAWAGGRNGREVMDRFFPLVPDLLSPRGLFYLVTIKENNPEEILKIMKTKGLQGTTALSRQAGQETLSVLKFTKS
# B2: C21orf127(Y125A)/TRMT112 complex (protein)
# chain 1: B1 chain with Y125A
# chain 2: T1 chain
# B3: C21orf127/TRMT112 heterodimer (KMT9) (protein)
# chain 1: B1 chain
# chain 2: T1 chain
# What was measured:
# [1] = biological target: T1, TRMT112 (KMT9beta; tRNA …)
# [2] = biological target: mutant histone H4 where K12 was changed to alanine (H4K12A), P62805
protein,measurement,setting,value
B1,HMT activity (methylation assay),[1],only the C21orf127/TRMT112 heterodimer displayed HMT activity
B2,methylation of ETF1 (methylation assay),"ETF1, P62495","resulted in methylation of H4K12, but not ETF1 by the mutant C21orf127(Y125A)/TRMT112 complex"
same,methylation of H4K12 (methylation assay),"histone H4, P62805","resulted in methylation of H4K12, but not ETF1 by the mutant C21orf127(Y125A)/TRMT112 complex"
B3,in vitro methylation assay with SAM [3H] (FIG. 1B),[2],"wild-type H4 protein, but not mutant H4 where K12 was changed to an alanine (A) residue (H4K12A), was methylated"
same,"in vitro methylation assay with SAM [3H] (FIG. 1A, FIG. 1B)","histone H4, P62805","wild-type H4 protein, but not mutant H4 where K12 was changed to an alanine (A) residue (H4K12A), was methylated"
